Measurements published in patent US20140212458A1.

What was measured:
[1] = target: BG505.T332N Env on Env-pseudotyped virus (HIV-1 BG505 (clade A))
[2] = target: BG505.T332N Env on Env-pseudotyped virus (HIV-1 BG505 (clade A)); experiment: cell-based or functional assay

Substance	IC50, neutralization of BG505.T332N pseudovirus, TZM-bl cells [1]	IC50 of neutralization of BG505.T332N Env-pseudovirus (TZM-bl) [2]
1NC9 (antibody)	0.251 µg/mL	
2G12 (antibody)	0.79 µg/mL	
3BC176 (antibody)	0.175 µg/mL	
3BC315 (antibody)	1.26 µg/mL	
3BNC60 (antibody)	0.034 µg/mL	
3BNC117 (antibody)	0.041 µg/mL	
7B2 (antibody)	> 30 µg/mL	> 30 µg/mL
8ANC195 (antibody)	0.139 µg/mL	
12A12 (antibody)	0.05 µg/mL	
45-46 (antibody)	0.033 µg/mL	
A32 (antibody)	> 30 µg/mL	> 30 µg/mL
CH01 (antibody)	0.301 µg/mL	
CH31 (antibody)	0.014 µg/mL	
CH103 (antibody)	2.57 µg/mL	
CH106 (antibody)	2.7 µg/mL	
F91 (antibody)	> 30 µg/mL	> 30 µg/mL
F105 (antibody)	> 30 µg/mL	> 30 µg/mL
F240 (antibody)	> 30 µg/mL	> 30 µg/mL
HJ16 (antibody)	3.2 µg/mL	
PG16 (antibody)	0.008 µg/mL	

Substance	IC50, neutralization of BG505.T332N pseudovirus, TZM-bl cells [1]	IC50 of neutralization of BG505.T332N Env-pseudovirus (TZM-bl) [2]
PGT121 (antibody)	0.015 µg/mL	
PGT122 (antibody)	0.112 µg/mL	
PGT123 (antibody)	0.028 µg/mL	
PGT125 (antibody)	0.007 µg/mL	
PGT126 (antibody)	0.01 µg/mL	
PGT127 (antibody)	0.037 µg/mL	
PGT128 (antibody)	0.011 µg/mL	
PGT130 (antibody)	0.027 µg/mL	
PGT135 (antibody)	2.23 µg/mL	
PGT136 (antibody)	25.7 µg/mL	26.6 µg/mL
PGT145 (antibody)	0.083 µg/mL	
PGV04 (antibody)	0.066 µg/mL	
VRC01 (antibody)	0.07 µg/mL	
VRC03 (antibody)	0.554 µg/mL	
VRC06 (antibody)	3.32 µg/mL	
VRC06b (antibody)	1.11 µg/mL	
X5 (antibody)	> 30 µg/mL	> 30 µg/mL
b6 (antibody)	> 30 µg/mL	> 30 µg/mL
b12 (antibody)	> 30 µg/mL	30 µg/mL
